Experimental data: patent US20210139548A1 (published 2021)
Blank lines part the entries; values can stand above or below the binder they belong to. *1 amine or outer side, *2 acyl side, *3 side chain or, on linkers, in order; H or OH if unused. Side-chain parts run from the residue outwards. The star is where a group is joined. C18 diacid = O=C(O)CCCCCCCCCCCCCCCCC(=O)*; γGlu = O=C(O)[C@H](CCC(=O)[*:2])N[*:1]; Isovaleryl = CC(C)CC(=O)*; AEEA = NCCOCCOCC(=O)O

Target: T1, human neuropeptide Y2 receptor (human, UniProt P49146 1-381)
T1 construct: whole, on cells; also called hNPY2 receptor; hNPY2-R
T1 sequence (looked up): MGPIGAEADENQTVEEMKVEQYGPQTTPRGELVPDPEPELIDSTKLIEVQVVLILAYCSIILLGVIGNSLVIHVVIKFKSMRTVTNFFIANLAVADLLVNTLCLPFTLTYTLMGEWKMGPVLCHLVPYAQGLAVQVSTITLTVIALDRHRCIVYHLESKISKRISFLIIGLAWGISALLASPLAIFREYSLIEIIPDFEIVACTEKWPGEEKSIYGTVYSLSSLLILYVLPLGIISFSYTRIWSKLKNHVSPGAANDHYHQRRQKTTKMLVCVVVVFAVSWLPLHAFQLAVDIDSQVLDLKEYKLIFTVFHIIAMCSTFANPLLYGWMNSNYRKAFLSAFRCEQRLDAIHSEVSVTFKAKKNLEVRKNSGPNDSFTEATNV
Experiment: radioligand competition (125I-PYY(1-36)), hNPY2R membranes
Method in brief: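 Commercial human Y2 receptor membranes (0.5 μg protein/well) were incubated with peptide for 2 h at room temperature in 50 mM HEPES, 5 mM MgCl₂, 1 mM CaCl₂, pH 7.4, with 0.2% ovalbumin. Bound radioligand was separated on PEI-soaked GF/C filters and counted by scintillation, and IC₅₀ came from nonlinear sigmoidal regression.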

Ki: 1 nM
B1: Compound 179 (peptide)
peptide: Isovaleryl-APAK([AEEA-AEEA-γGlu-C18 diacid])PEEDASPAELQRYYVSLRHYYNWLTRQRY-NH2
SMILES: CC(C)CC(=O)N[C@@H](C)C(=O)N1CCC[C@H]1C(=O)N[C@@H](C)C(=O)N[C@@H](CCCCNC(=O)COCCOCCNC(=O)COCCOCCNC(=O)CC[C@H](NC(=O)CCCCCCCCCCCCCCCCC(=O)O)C(=O)O)C(=O)N1CCC[C@H]1C(=O)N[C@@H](CCC(=O)O)C(=O)N[C@@H](CCC(=O)O)C(=O)N[C@@H](CC(=O)O)C(=O)N[C@@H](C)C(=O)N[C@@H](CO)C(=O)N1CCC[C@H]1C(=O)N[C@@H](C)C(=O)N[C@@H](CCC(=O)O)C(=O)N[C@@H](CC(C)C)C(=O)N[C@@H](CCC(N)=O)C(=O)N[C@@H](CCCNC(=N)N)C(=O)N[C@@H](Cc1ccc(O)cc1)C(=O)N[C@@H](Cc1ccc(O)cc1)C(=O)N[C@H](C(=O)N[C@@H](CO)C(=O)N[C@@H](CC(C)C)C(=O)N[C@@H](CCCNC(=N)N)C(=O)N[C@@H](Cc1c[nH]cn1)C(=O)N[C@@H](Cc1ccc(O)cc1)C(=O)N[C@@H](Cc1ccc(O)cc1)C(=O)N[C@@H](CC(N)=O)C(=O)N[C@@H](Cc1c[nH]c2ccccc12)C(=O)N[C@@H](CC(C)C)C(=O)N[C@H](C(=O)N[C@@H](CCCNC(=N)N)C(=O)N[C@@H](CCC(N)=O)C(=O)N[C@@H](CCCNC(=N)N)C(=O)N[C@@H](Cc1ccc(O)cc1)C(N)=O)[C@@H](C)O)C(C)C

Ki: 2.06 nM
B2: Compound 184 (peptide)
peptide: Isovaleryl-APEK([AEEA-AEEA-γGlu-C18 diacid])PEEAASPEELQRYYVTLRHYYNWLTRQRY-NH2
SMILES: CC(C)CC(=O)N[C@@H](C)C(=O)N1CCC[C@H]1C(=O)N[C@@H](CCC(=O)O)C(=O)N[C@@H](CCCCNC(=O)COCCOCCNC(=O)COCCOCCNC(=O)CC[C@H](NC(=O)CCCCCCCCCCCCCCCCC(=O)O)C(=O)O)C(=O)N1CCC[C@H]1C(=O)N[C@@H](CCC(=O)O)C(=O)N[C@@H](CCC(=O)O)C(=O)N[C@@H](C)C(=O)N[C@@H](C)C(=O)N[C@@H](CO)C(=O)N1CCC[C@H]1C(=O)N[C@@H](CCC(=O)O)C(=O)N[C@@H](CCC(=O)O)C(=O)N[C@@H](CC(C)C)C(=O)N[C@@H](CCC(N)=O)C(=O)N[C@@H](CCCNC(=N)N)C(=O)N[C@@H](Cc1ccc(O)cc1)C(=O)N[C@@H](Cc1ccc(O)cc1)C(=O)N[C@H](C(=O)N[C@H](C(=O)N[C@@H](CC(C)C)C(=O)N[C@@H](CCCNC(=N)N)C(=O)N[C@@H](Cc1c[nH]cn1)C(=O)N[C@@H](Cc1ccc(O)cc1)C(=O)N[C@@H](Cc1ccc(O)cc1)C(=O)N[C@@H](CC(N)=O)C(=O)N[C@@H](Cc1c[nH]c2ccccc12)C(=O)N[C@@H](CC(C)C)C(=O)N[C@H](C(=O)N[C@@H](CCCNC(=N)N)C(=O)N[C@@H](CCC(N)=O)C(=O)N[C@@H](CCCNC(=N)N)C(=O)N[C@@H](Cc1ccc(O)cc1)C(N)=O)[C@@H](C)O)[C@@H](C)O)C(C)C

Ki: 3.45 nM
B3: Compound 182 (peptide)
peptide: Isovaleryl-APEK([AEEA-AEEA-γGlu-C18 diacid])PEEDGSPEELQRYYVELRHYYNWLTRQRY-NH2
SMILES: CC(C)CC(=O)N[C@@H](C)C(=O)N1CCC[C@H]1C(=O)N[C@@H](CCC(=O)O)C(=O)N[C@@H](CCCCNC(=O)COCCOCCNC(=O)COCCOCCNC(=O)CC[C@H](NC(=O)CCCCCCCCCCCCCCCCC(=O)O)C(=O)O)C(=O)N1CCC[C@H]1C(=O)N[C@@H](CCC(=O)O)C(=O)N[C@@H](CCC(=O)O)C(=O)N[C@@H](CC(=O)O)C(=O)NCC(=O)N[C@@H](CO)C(=O)N1CCC[C@H]1C(=O)N[C@@H](CCC(=O)O)C(=O)N[C@@H](CCC(=O)O)C(=O)N[C@@H](CC(C)C)C(=O)N[C@@H](CCC(N)=O)C(=O)N[C@@H](CCCNC(=N)N)C(=O)N[C@@H](Cc1ccc(O)cc1)C(=O)N[C@@H](Cc1ccc(O)cc1)C(=O)N[C@H](C(=O)N[C@@H](CCC(=O)O)C(=O)N[C@@H](CC(C)C)C(=O)N[C@@H](CCCNC(=N)N)C(=O)N[C@@H](Cc1c[nH]cn1)C(=O)N[C@@H](Cc1ccc(O)cc1)C(=O)N[C@@H](Cc1ccc(O)cc1)C(=O)N[C@@H](CC(N)=O)C(=O)N[C@@H](Cc1c[nH]c2ccccc12)C(=O)N[C@@H](CC(C)C)C(=O)N[C@H](C(=O)N[C@@H](CCCNC(=N)N)C(=O)N[C@@H](CCC(N)=O)C(=O)N[C@@H](CCCNC(=N)N)C(=O)N[C@@H](Cc1ccc(O)cc1)C(N)=O)[C@@H](C)O)C(C)C

Ki: 0.67 nM
B4: Compound 181 (peptide)
peptide: Isovaleryl-APEK([AEEA-AEEA-γGlu-C18 diacid])PEADASPEELQRYYVALRHYYNWLTRQRY-NH2
SMILES: CC(C)CC(=O)N[C@@H](C)C(=O)N1CCC[C@H]1C(=O)N[C@@H](CCC(=O)O)C(=O)N[C@@H](CCCCNC(=O)COCCOCCNC(=O)COCCOCCNC(=O)CC[C@H](NC(=O)CCCCCCCCCCCCCCCCC(=O)O)C(=O)O)C(=O)N1CCC[C@H]1C(=O)N[C@@H](CCC(=O)O)C(=O)N[C@@H](C)C(=O)N[C@@H](CC(=O)O)C(=O)N[C@@H](C)C(=O)N[C@@H](CO)C(=O)N1CCC[C@H]1C(=O)N[C@@H](CCC(=O)O)C(=O)N[C@@H](CCC(=O)O)C(=O)N[C@@H](CC(C)C)C(=O)N[C@@H](CCC(N)=O)C(=O)N[C@@H](CCCNC(=N)N)C(=O)N[C@@H](Cc1ccc(O)cc1)C(=O)N[C@@H](Cc1ccc(O)cc1)C(=O)N[C@H](C(=O)N[C@@H](C)C(=O)N[C@@H](CC(C)C)C(=O)N[C@@H](CCCNC(=N)N)C(=O)N[C@@H](Cc1c[nH]cn1)C(=O)N[C@@H](Cc1ccc(O)cc1)C(=O)N[C@@H](Cc1ccc(O)cc1)C(=O)N[C@@H](CC(N)=O)C(=O)N[C@@H](Cc1c[nH]c2ccccc12)C(=O)N[C@@H](CC(C)C)C(=O)N[C@H](C(=O)N[C@@H](CCCNC(=N)N)C(=O)N[C@@H](CCC(N)=O)C(=O)N[C@@H](CCCNC(=N)N)C(=O)N[C@@H](Cc1ccc(O)cc1)C(N)=O)[C@@H](C)O)C(C)C

Ki: 0.7 nM
B5: Compound 183 (peptide)
peptide: Isovaleryl-APEK([AEEA-AEEA-γGlu-C18 diacid])PPEDASPEELQRYYVSLRHYYNWLTRQRY-NH2
SMILES: CC(C)CC(=O)N[C@@H](C)C(=O)N1CCC[C@H]1C(=O)N[C@@H](CCC(=O)O)C(=O)N[C@@H](CCCCNC(=O)COCCOCCNC(=O)COCCOCCNC(=O)CC[C@H](NC(=O)CCCCCCCCCCCCCCCCC(=O)O)C(=O)O)C(=O)N1CCC[C@H]1C(=O)N1CCC[C@H]1C(=O)N[C@@H](CCC(=O)O)C(=O)N[C@@H](CC(=O)O)C(=O)N[C@@H](C)C(=O)N[C@@H](CO)C(=O)N1CCC[C@H]1C(=O)N[C@@H](CCC(=O)O)C(=O)N[C@@H](CCC(=O)O)C(=O)N[C@@H](CC(C)C)C(=O)N[C@@H](CCC(N)=O)C(=O)N[C@@H](CCCNC(=N)N)C(=O)N[C@@H](Cc1ccc(O)cc1)C(=O)N[C@@H](Cc1ccc(O)cc1)C(=O)N[C@H](C(=O)N[C@@H](CO)C(=O)N[C@@H](CC(C)C)C(=O)N[C@@H](CCCNC(=N)N)C(=O)N[C@@H](Cc1c[nH]cn1)C(=O)N[C@@H](Cc1ccc(O)cc1)C(=O)N[C@@H](Cc1ccc(O)cc1)C(=O)N[C@@H](CC(N)=O)C(=O)N[C@@H](Cc1c[nH]c2ccccc12)C(=O)N[C@@H](CC(C)C)C(=O)N[C@H](C(=O)N[C@@H](CCCNC(=N)N)C(=O)N[C@@H](CCC(N)=O)C(=O)N[C@@H](CCCNC(=N)N)C(=O)N[C@@H](Cc1ccc(O)cc1)C(N)=O)[C@@H](C)O)C(C)C

Ki: 3.85 nM
B6: Compound 180 (peptide)
peptide: Isovaleryl-APEK([AEEA-AEEA-γGlu-C18 diacid])PEEDASPEETQQYYVSLRHYYNWLTRQRY-NH2
SMILES: CC(C)CC(=O)N[C@@H](C)C(=O)N1CCC[C@H]1C(=O)N[C@@H](CCC(=O)O)C(=O)N[C@@H](CCCCNC(=O)COCCOCCNC(=O)COCCOCCNC(=O)CC[C@H](NC(=O)CCCCCCCCCCCCCCCCC(=O)O)C(=O)O)C(=O)N1CCC[C@H]1C(=O)N[C@@H](CCC(=O)O)C(=O)N[C@@H](CCC(=O)O)C(=O)N[C@@H](CC(=O)O)C(=O)N[C@@H](C)C(=O)N[C@@H](CO)C(=O)N1CCC[C@H]1C(=O)N[C@@H](CCC(=O)O)C(=O)N[C@@H](CCC(=O)O)C(=O)N[C@H](C(=O)N[C@@H](CCC(N)=O)C(=O)N[C@@H](CCC(N)=O)C(=O)N[C@@H](Cc1ccc(O)cc1)C(=O)N[C@@H](Cc1ccc(O)cc1)C(=O)N[C@H](C(=O)N[C@@H](CO)C(=O)N[C@@H](CC(C)C)C(=O)N[C@@H](CCCNC(=N)N)C(=O)N[C@@H](Cc1c[nH]cn1)C(=O)N[C@@H](Cc1ccc(O)cc1)C(=O)N[C@@H](Cc1ccc(O)cc1)C(=O)N[C@@H](CC(N)=O)C(=O)N[C@@H](Cc1c[nH]c2ccccc12)C(=O)N[C@@H](CC(C)C)C(=O)N[C@H](C(=O)N[C@@H](CCCNC(=N)N)C(=O)N[C@@H](CCC(N)=O)C(=O)N[C@@H](CCCNC(=N)N)C(=O)N[C@@H](Cc1ccc(O)cc1)C(N)=O)[C@@H](C)O)C(C)C)[C@@H](C)O
